These results are taken from article PMC2788865 (The Journal of Biological Chemistry, 2009).

The assay deals with Lys^75-FL-calmodulin (FL-CaM) (human, UniProt P0DP23 1-149, 5-(4,6-dichlorotriazinyl)aminofluorescein (FL) on Lys75). Put plainly: fluorescence polarisation.

B1: Ca^2+/calmodulin-dependent protein kinase IV (CaMKIV) (enzyme)
chain: MLKVTVPSCPSSPCSSVTSSTENLVPDYWIDGSKRDPLSDFFEVESELGRGATSIVYRCKQKGTQKPYALKVLKKTVDKKIVRTEIGVLLRLSHPNIIKLKEIFETPTEISLVLELVTGGELFDRIVEKGYYSERDAADAVKQILEAVAYLHENGIVHRDLKPENLLYATPAPDAPLKIADFGLSKIVEHQVLMKTVCGTPGYCAPEILRGCAYGPEVDMWSVGIITYILLCGFEPFYDERGDQFMFRRILNCEYYFISPWWDEVSLNAKDLVKKLIVLDPKKRLTTFQALQHPWVTGKAANFVHMDTAQKKLQEFNARRKLKAAVKAVVASSRLGSASSSHTNIQESNKASSEAQPAQDGKDKTDPLENKMQAGDHEAAKAAADETMKLQSEEVEEEEGVKEEEEEEEEEEETSRMVPQEPEDRLETDDQEMKRNSEETLKSVEEEMDPKAEEEAAAVGLGVPPQQDAILPEY
As for B1, the binding result is given as “binds”.
